Assay [1] deals with HLA-A*02:01 transgenic mouse. In words: In vivo CTL induction test, IFNγ ELISPOT of spleen cells, HLA-A*02:01 transgenic mouse. The note with it: 250 μg/location intradermal with IFA, spleen after one week. An excerpt:
(§1) An HLA-A*02:01 transgenic mouse (C57BL/6CrHLA-A2.1DR1) is a mouse that is deficient in mouse MHC and expresses HLA-A*02:01 and HLA-DRB1*01:01, which are human MHCs, and the use of this mouse enables a peptide that can induce CTLs in humans to be selected. Furthermore, an HLA-A*24:02 transgenic mouse is a mouse that expresses HLA-A*24:02, which is a human MHC, and the use of this mouse enables a peptide that can induce CTLs in a human to be selected. Whether or not each peptide has an activity in inducing CTLs was determined by whether or not T cells that can react with the administered peptide are induced by administering the peptide to the mouse.
(§2) Specifically, it was carried as follows. First, the peptide was dissolved in dimethyl sulfoxide at 80 mg/mL, then diluted with water for injection, and mixed with an equal part of incomplete Freund's adjuvant (IFA or ISA51VG), thus forming an emulsion. The peptide thus emulsified was administered to the mouse tail base intradermally at two locations at a dose of 250 μg/location. One week after that, the mouse was euthanized with CO2 gas, the spleen was removed, and spleen cells were prepared. For measurement of IFNγ production, an IFNγ ELISPOT assay kit (Becton, Dickinson and Company) was used. On the day before preparing the spleen cells, an ELISPOT plate was treated with an anti-IFNγ antibody, and on the day it was blocked with 10% FBS-containing RPMI 1640 medium. The spleen cells prepared were plated on the blocked ELISPOT plate at 0.25 to 1.0×10^6 cells/well. The administered FAM83B-derived peptide was dissolved in DMSO at 40 mg/mL and further diluted with 10% RPMI 1640 medium to 20 μg/mL. The diluted peptide was added at 50 μL/well to the spleen cells derived from the animal to which the peptide had been administered. In vitro peptide restimulation was applied by culturing the spleen cells to which the peptide was added under 5% CO2 at 37° C. for 16 to 18 hours. After culturing, the supernatant was removed, and the ELISPOT plate was subjected to color development in accordance with the included protocol. The number of color developed spots was measured by KS-ELISPOT.

The target in assay [2] is T1, HLA-A*02:01 (Homo sapiens, UniProt P04439, D140Y/D185E/D98H/E176V/E277Q/G131W/G231S/I119V/I121R/I166T/I218V/L300P/L318F/N151K/N90K/P208A/P217A/Q86G/Q94H/R138H/R169H/T345S).
T1 construct: T2 cells can usually only express a low level of empty MHC class I molecules on the cell surface; endogenous in cells; host or cells: T2-A24 cells (human lymphoblastoid T2 cells, TAP-deficient)
Type of assay: binding.

In assay [3] the test system is HLA-A*24:02 transgenic mouse. In words: In vivo CTL induction test, IFNγ ELISPOT of spleen cells, HLA-A*24:02 transgenic mouse. The note with it: 250 μg/location intradermal with IFA, spleen after one week.
Description: as §1, §2

Assay [4] has as its target HLA-A*24:02 (Homo sapiens, UniProt P04439, D101N/D140Y/D185E/E176V/E190D/F33S/G103R/G107R/I119L/I121M/I306V/K335N/L105A/L180Q/L300P/N151K/N90K/Q86E/Q94H/R106L/R138H/R89G/T104I/T345S/V100E/W191G/Y123F). Type of assay: binding.

Where “and” joins values, the source holds several entries; their conditions need not be identical. Equal entries are not always repeated. Entries after “also recorded” stand apart in the source; their conditions may differ.

The source of these data is patent publication US20160310583A1, “TUMOR ANTIGEN PEPTIDE” (Sumitomo Dainippon Pharma Co., Ltd., priority 2013, published 2016).

In the case of ALVMDIFTDV [Peptide F151_10], the “CTL inducibility (peptide-specific IFNγ production in spleen cells)” value (“CTL inducibility” below) in assay [1] (listed as SEQ ID No: 37) is “had CTL inducibility; also recorded: having CTL inducibility”. Besides, the “binding to HLA-A02 (in words)” value in assay [2] was “capable of binding to HLA-A02”.
Take “EADPTGHSY [HLA-A*02:01 Negative control, MAGE-1161-169 peptide as an HLA-A02-negative control, reference compound]”: the “HLA-A*02:01 Negative control, MFI as solvent ratio” value in assay [2] was 1.1 and 1.0.
In the case of FLAEEEINYI [Peptide F55_10], in assay [1], the “CTL inducibility” value is on record as “having CTL inducibility”. The “binding to HLA-A02 (in words)” value in assay [2] is “capable of binding to HLA-A02”.
In the case of FLAEEEINYIL [Peptide F55_11], in assay [1], the “CTL inducibility” value is listed as “having CTL inducibility”. Moreover, the “binding to HLA-A02 (in words)” value in assay [2] is given as “capable of binding to HLA-A02”.
In the case of FLLVDCQKVM [Peptide F231_10], the “CTL inducibility” value in assay [1] is reported as “having CTL inducibility”. The “binding to HLA-A02 (in words)” value in assay [2] is listed as “capable of binding to HLA-A02”.
Consider FLVQERVSDFL [Peptide F46_11], for which the “Evaluation results HLA-A0201, mean fluorescence intensity (MFI) as solvent ratio” value in assay [2] amounted to 1.4.
As for GLLGGTHIDLL [Peptide F114_11], the “CTL inducibility” value in assay [1] is “having CTL inducibility”. The “binding to HLA-A02 (in words)” value in assay [2] is on record as “capable of binding to HLA-A02”.
Take GWPYVMPGLL [Peptide F107_10]: the “CTL inducibility” value in assay [3] (listed as SEQ ID No: 6) was “had CTL inducibility; also recorded: having CTL inducibility”. In addition, the “binding to HLA-A24 (in words)” value in assay [4] is reported as “capable of binding to HLA-A024”.
As for HLLTIKETI [Peptide F131_9], in assay [1] (listed as SEQ ID No: 35), the “CTL inducibility” value is “had CTL inducibility; also recorded: having CTL inducibility”. Besides, the “binding to HLA-A02 (in words)” value in assay [2] is given as “capable of binding to HLA-A02”.
In the case of HYKEWYRVAI [Peptide F23_10], the “CTL inducibility” value in assay [1] (listed as SEQ ID No: 4) and in assay [3] (listed as SEQ ID No: 4) was “had CTL inducibility; also recorded: having CTL inducibility” throughout. In addition, the “binding to HLA-A24 (in words)” value in assay [4] is on record as “capable of binding to HLA-A024”. The “binding to HLA-A02 (in words)” value in assay [2] is “capable of binding to HLA-A02”.
On to KVIALVMDI [Peptide F148_9], for which the “CTL inducibility” value in assay [1] and in assay [3] was “having CTL inducibility” throughout. Moreover, the “binding to HLA-A24 (in words)” value in assay [4] was “capable of binding to HLA-A024”. In assay [2], the “binding to HLA-A02 (in words)” value is reported as “capable of binding to HLA-A02”.
As to KVMYGSYSYMWSF [Peptide F238_13], the “CTL inducibility” value in assay [3] is “having CTL inducibility”. Moreover, the “binding to HLA-A24 (in words)” value in assay [4] is “capable of binding to HLA-A024”.
Regarding LLDESNFNHFL [Peptide F179_11], the “CTL inducibility” value in assay [1] (listed as SEQ ID No: 38) is reported as “had CTL inducibility; also recorded: having CTL inducibility”. Further, the “binding to HLA-A02 (in words)” value in assay [2] was “capable of binding to HLA-A02”.
Consider LVQERVSDFL [Peptide F47_10], for which the “CTL inducibility” value in assay [3] (listed as SEQ ID No: 75) is “had CTL inducibility; also recorded: having CTL inducibility”. In assay [4], the “binding to HLA-A24 (in words)” value is given as “capable of binding to HLA-A024”.
As for LYARSCVPSSF [Peptide F276_11], the “CTL inducibility” value in assay [3] (listed as SEQ ID No: 14) is on record as “had CTL inducibility; also recorded: having CTL inducibility”. The “binding to HLA-A24 (in words)” value in assay [4] is reported as “capable of binding to HLA-A024”.
As to MVQIITGQLV [Peptide F257_10], the “CTL inducibility” value in assay [1] was “having CTL inducibility”. The “binding to HLA-A02 (in words)” value in assay [2] is “capable of binding to HLA-A02”.
For the sequence NLDLGWPYV [Peptide F103_9], in assay [1], the “CTL inducibility” value was “having CTL inducibility”. Further, the “binding to HLA-A02 (in words)” value in assay [2] is on record as “capable of binding to HLA-A02”.
NYIEPHYKEW [Peptide F18_10]: in assay [3] (listed as SEQ ID No: 74), the “CTL inducibility” value is on record as “had CTL inducibility; also recorded: having CTL inducibility”. The “binding to HLA-A24 (in words)” value in assay [4] is reported as “capable of binding to HLA-A024”.
With PFCKIESSI [Peptide F939_9], the “CTL inducibility” value in assay [3] (listed as SEQ ID No: 23) is on record as “had CTL inducibility; also recorded: having CTL inducibility”. The “binding to HLA-A24 (in words)” value in assay [4] is reported as “capable of binding to HLA-A024”.
Take PLPESIPKL [Peptide F594_9]: the “Evaluation results HLA-A0201, mean fluorescence intensity (MFI) as solvent ratio” value in assay [2] amounted to 1.4.
In the case of “RGYVYQGL [HLA-A*24:02 Negative control, reference compound]”, in assay [4], the “HLA-A*24:02 Negative control, MFI as solvent ratio” value was 1.0 and 1.1.
In the case of RLCSSSDTLV [Peptide F799_10], the “CTL inducibility” value in assay [1] (listed as SEQ ID No: 57) was “had CTL inducibility; also recorded: having CTL inducibility”. Further, in assay [2], the “binding to HLA-A02 (in words)” value was “capable of binding to HLA-A02”.
As for SMVQIITGQLV [Peptide F256_11], in assay [1] (listed as SEQ ID No: 60), the “CTL inducibility” value is given as “had CTL inducibility; also recorded: having CTL inducibility”. For the same sequence, the “binding to HLA-A02 (in words)” value in assay [2] is on record as “capable of binding to HLA-A02”.
For the sequence SYGRSSPLL [Peptide F971_9], in assay [3] (listed as SEQ ID No: 24), the “CTL inducibility” value was “had CTL inducibility; also recorded: having CTL inducibility”. For the same sequence, the “binding to HLA-A24 (in words)” value in assay [4] is “capable of binding to HLA-A024”.
SYMWSFEKAHL [Peptide F245_11]: the “CTL inducibility” value in assay [3] (listed as SEQ ID No: 12) is on record as “had CTL inducibility; also recorded: having CTL inducibility”. The “binding to HLA-A24 (in words)” value in assay [4] was “capable of binding to HLA-A024”.
Turning to TLSSGTYWPV [Peptide F86_10], the “CTL inducibility” value in assay [1] is listed as “having CTL inducibility”. Also, the “binding to HLA-A02 (in words)” value in assay [2] was “capable of binding to HLA-A02”.
For the sequence TYQHSVSSL [Peptide F305_9], in assay [3] (listed as SEQ ID No: 15), the “CTL inducibility” value is listed as “had CTL inducibility; also recorded: having CTL inducibility”. For the same sequence, in assay [4], the “binding to HLA-A24 (in words)” value is on record as “capable of binding to HLA-A024”.
On to VIALVMDIFT [Peptide F149_10], for which the “CTL inducibility” value in assay [3] was “having CTL inducibility”. In assay [4], the “binding to HLA-A24 (in words)” value was “capable of binding to HLA-A024”.
On the same counts, the results for VMDIFTDVDIF [Peptide F153_11] are “having CTL inducibility” and “capable of binding to HLA-A024”.
For the sequence VMYGSYSYMW [Peptide F239_10], the “CTL inducibility” value in assay [3] is given as “having CTL inducibility”. Besides, the “binding to HLA-A24 (in words)” value in assay [4] is recorded as “capable of binding to HLA-A024”.
Turning to VYILLDESNF [Peptide F176_10], the “CTL inducibility” value in assay [3] (listed as SEQ ID No: 9) was “had CTL inducibility; also recorded: having CTL inducibility”. Moreover, in assay [4], the “binding to HLA-A24 (in words)” value is “capable of binding to HLA-A024”.
As for YILKNVQKV [Peptide F63_9], the “CTL inducibility” value in assay [1] is “having CTL inducibility”. In addition, in assay [2], the “binding to HLA-A02 (in words)” value is listed as “capable of binding to HLA-A02”.
